From IntAct's records for PubMed 16247757

B1: Lamina-associated polypeptide 2, isoform alpha (Homo sapiens), P42166 (parent)
chain: MPEFLEDPSVLTKDKLKSELVANNVTLPAGEQRKDVYVQLYLQHLTARNRPPLPAGTNSKGPPDFSSDEEREPTPVLGSGAAAAGRSRAAVGRKATKKTDKPRQEDKDDLDVTELTNEDLLDQLVKYGVNPGPIVGTTRKLYEKKLLKLREQGTESRSSTPLPTISSSAENTRQNGSNDSDRYSDNEEGKKKEHKKVKSTRDIVPFSELGTTPSGGGFFQGISFPEISTRPPLGSTELQAAKKVHTSKGDLPREPLVATNLPGRGQLQKLASERNLFISCKSSHDRCLEKSSSSSSQPEHSAMLVSTAASPSLIKETTTGYYKDIVENICGREKSGIQPLCPERSHISDQSPLSSKRKALEESESSQLISPPLAQAIRDYVNSLLVQGGVGSLPGTSNSMPPLDVENIQKRIDQSKFQETEFLSPPRKVPRLSEKSVEERDSGSFVAFQNIPGSELMSSFAKTVVSHSLTTLGLEVAKQSQHDKIDASELSFPFHESILKVIEEEWQQVDRQLPSLACKYPVSSREATQILSVPKVDDEILGFISEATPLGGIQAASTESCNQQLDLALCRAYEAAASALQIATHTAFVAKAMQADISQAAQILSSDPSRTHQALGILSKTYDAASYICEAAFDEVKMAAHTMGNATVGRRYLWLKDCKINLASKNKLASTPFKGGTLFGGEVCKVIKKRGNKH

Variants of: B1
Conditions: with lmna_human LMNA

Question: R690C was tested. Which “effect of a mutation on the interaction” value did it give?
Answer: The value was “decreasing interaction”.
